Experimental data reported in patent US20220325265A1, “GLUCOCEREBROSIDASE MUTANTS” (Hoffmann-la Roche Inc., priority 2019, published 2022).
“And” between values parts separate entries of the source, which are not always exact repeats. Identical values can stand only once.

B1: R495HS2: hGCase based on the Cerezyme sequence (R495H) but produced in S2 cells, His8-tagged; Seq. Id. No. 1 (protein, listed as Homo sapiens)
chain: ARPCIPKSFGYSSVVCVCNATYCDSFDPPTFPALGTFSRYESTRSGRRMELSMGPIQANHTGTGLLLTLQPEQKFQKVKGFGGAMTDAAALNILALSPPAQNLLLKSYFSEEGIGYNIIRVPMASCDFSIRTYTYADTPDDFQLHNFSLPEEDTKLKIPLIHRALQLAQRPVSLLASPWTSPTWLKTNGAVNGKGSLKGQPGDIYHQTWARYFVKFLDAYAEHKLQFWAVTAENEPSAGLLSGYPFQCLGFTPEHQRDFIARDLGPTLANSTHHNVRLLMLDDQRLLLPHWAKVVLTDPEAAKYVHGIAVHWYLDFLAPAKATLGETHRLFPNTMLFASEACVGSKFWEQSVRLGSWDRGMQYSHSIITNLLYHVVGWTDWNLALNPEGGPNWVRNFVDSPIIVDITKDTFYKQPMFYHLGHFSKFIPEGSQRVGLVASQKNDLDAVALMHPDGSAVVVVLNRSSKDVPLTIKDPAVGFLETISPGYSIHTYLWHRQ
modifications: His8 tag
B2: K321N: Amicus single mutant hGCase R495H/K321N produced in S2 cells; Seq. Id. No. 2 (protein, listed as Homo sapiens)
chain: ARPCIPKSFGYSSVVCVCNATYCDSFDPPTFPALGTFSRYESTRSGRRMELSMGPIQANHTGTGLLLTLQPEQKFQKVKGFGGAMTDAAALNILALSPPAQNLLLKSYFSEEGIGYNIIRVPMASCDFSIRTYTYADTPDDFQLHNFSLPEEDTKLKIPLIHRALQLAQRPVSLLASPWTSPTWLKTNGAVNGKGSLKGQPGDIYHQTWARYFVKFLDAYAEHKLQFWAVTAENEPSAGLLSGYPFQCLGFTPEHQRDFIARDLGPTLANSTHHNVRLLMLDDQRLLLPHWAKVVLTDPEAAKYVHGIAVHWYLDFLAPANATLGETHRLFPNTMLFASEACVGSKFWEQSVRLGSWDRGMQYSHSIITNLLYHVVGWTDWNLALNPEGGPNWVRNFVDSPIIVDITKDTFYKQPMFYHLGHFSKFIPEGSQRVGLVASQKNDLDAVALMHPDGSAVVVVLNRSSKDVPLTIKDPAVGFLETISPGYSIHTYLWHRQ
notes: Amicus single mutant hGCase R495H/K321N produced in S2 cells; Id; No. 2
B3: K321N/H145L: Amicus double mutant hGCase R495H/K321N/H145L produced in S2 cells; Seq. Id. No. 3 (protein, listed as Homo sapiens)
chain: ARPCIPKSFGYSSVVCVCNATYCDSFDPPTFPALGTFSRYESTRSGRRMELSMGPIQANHTGTGLLLTLQPEQKFQKVKGFGGAMTDAAALNILALSPPAQNLLLKSYFSEEGIGYNIIRVPMASCDFSIRTYTYADTPDDFQLLNFSLPEEDTKLKIPLIHRALQLAQRPVSLLASPWTSPTWLKTNGAVNGKGSLKGQPGDIYHQTWARYFVKFLDAYAEHKLQFWAVTAENEPSAGLLSGYPFQCLGFTPEHQRDFIARDLGPTLANSTHHNVRLLMLDDQRLLLPHWAKVVLTDPEAAKYVHGIAVHWYLDFLAPANATLGETHRLFPNTMLFASEACVGSKFWEQSVRLGSWDRGMQYSHSIITNLLYHVVGWTDWNLALNPEGGPNWVRNFVDSPIIVDITKDTFYKQPMFYHLGHFSKFIPEGSQRVGLVASQKNDLDAVALMHPDGSAVVVVLNRSSKDVPLTIKDPAVGFLETISPGYSIHTYLWHRQ
notes: Amicus double mutant hGCase R495H/K321N/H145L produced in S2 cells; Id; No. 3
B4: L34Q: recombinant human β-glucocerebrosidase variant R495H/L34Q, S2 cells; Seq. Id. No. 6 (protein, listed as Homo sapiens)
chain: ARPCIPKSFGYSSVVCVCNATYCDSFDPPTFPAQGTFSRYESTRSGRRMELSMGPIQANHTGTGLLLTLQPEQKFQKVKGFGGAMTDAAALNILALSPPAQNLLLKSYFSEEGIGYNIIRVPMASCDFSIRTYTYADTPDDFQLHNFSLPEEDTKLKIPLIHRALQLAQRPVSLLASPWTSPTWLKTNGAVNGKGSLKGQPGDIYHQTWARYFVKFLDAYAEHKLQFWAVTAENEPSAGLLSGYPFQCLGFTPEHQRDFIARDLGPTLANSTHHNVRLLMLDDQRLLLPHWAKVVLTDPEAAKYVHGIAVHWYLDFLAPAKATLGETHRLFPNTMLFASEACVGSKFWEQSVRLGSWDRGMQYSHSIITNLLYHVVGWTDWNLALNPEGGPNWVRNFVDSPIIVDITKDTFYKQPMFYHLGHFSKFIPEGSQRVGLVASQKNDLDAVALMHPDGSAVVVVLNRSSKDVPLTIKDPAVGFLETISPGYSIHTYLWHRQ
notes: recombinant human β-glucocerebrosidase variant R495H/L34Q, S2 cells; Id; No. 6
B5: F31Y: recombinant human β-glucocerebrosidase variant R495H/F31Y, S2 cells; Seq. Id. No. 5 (protein, listed as Homo sapiens)
chain: ARPCIPKSFGYSSVVCVCNATYCDSFDPPTYPALGTFSRYESTRSGRRMELSMGPIQANHTGTGLLLTLQPEQKFQKVKGFGGAMTDAAALNILALSPPAQNLLLKSYFSEEGIGYNIIRVPMASCDFSIRTYTYADTPDDFQLHNFSLPEEDTKLKIPLIHRALQLAQRPVSLLASPWTSPTWLKTNGAVNGKGSLKGQPGDIYHQTWARYFVKFLDAYAEHKLQFWAVTAENEPSAGLLSGYPFQCLGFTPEHQRDFIARDLGPTLANSTHHNVRLLMLDDQRLLLPHWAKVVLTDPEAAKYVHGIAVHWYLDFLAPAKATLGETHRLFPNTMLFASEACVGSKFWEQSVRLGSWDRGMQYSHSIITNLLYHVVGWTDWNLALNPEGGPNWVRNFVDSPIIVDITKDTFYKQPMFYHLGHFSKFIPEGSQRVGLVASQKNDLDAVALMHPDGSAVVVVLNRSSKDVPLTIKDPAVGFLETISPGYSIHTYLWHRQ
notes: recombinant human β-glucocerebrosidase variant R495H/F31Y, S2 cells; Id; No. 5
B6: M53T/P55T: recombinant human β-glucocerebrosidase variant R495H/M53T/P55T, S2 cells; Seq. Id. No. 7 (protein, listed as Homo sapiens)
chain: ARPCIPKSFGYSSVVCVCNATYCDSFDPPTFPALGTFSRYESTRSGRRMELSTGTIQANHTGTGLLLTLQPEQKFQKVKGFGGAMTDAAALNILALSPPAQNLLLKSYFSEEGIGYNIIRVPMASCDFSIRTYTYADTPDDFQLHNFSLPEEDTKLKIPLIHRALQLAQRPVSLLASPWTSPTWLKTNGAVNGKGSLKGQPGDIYHQTWARYFVKFLDAYAEHKLQFWAVTAENEPSAGLLSGYPFQCLGFTPEHQRDFIARDLGPTLANSTHHNVRLLMLDDQRLLLPHWAKVVLTDPEAAKYVHGIAVHWYLDFLAPAKATLGETHRLFPNTMLFASEACVGSKFWEQSVRLGSWDRGMQYSHSIITNLLYHVVGWTDWNLALNPEGGPNWVRNFVDSPIIVDITKDTFYKQPMFYHLGHFSKFIPEGSQRVGLVASQKNDLDAVALMHPDGSAVVVVLNRSSKDVPLTIKDPAVGFLETISPGYSIHTYLWHRQ
notes: recombinant human β-glucocerebrosidase variant R495H/M53T/P55T, S2 cells; Id; No. 7

Assays:
[1] = Determination of the kinetic parameters (Michaelis-Menten) with artificial substrate; format: biochemical; details: for kcat: protein concentration used: 25 nM; for Km / Vmax: res-β-glc 4-500 μM, 25 nM protein
Method: The kinetic parameters were examined using the artificial substrate resorufin-β-glucopyranoside (Sigma-Aldrich). For the determination, final concentrations of substrate ranging from 4-500 μM were tested. The assay followed the activity assay instructions in section 2.3.5. 25 nM final protein concentration was used for each construct. The incubation time was set to 30 min to ensure measurements in the linear signal range. The kinetics were evaluated and plotted according to Michaelis-Menten (Cornish-Bowden, 2013; Johnson, 2015). KM, Vmax was calculated by GraphPad Prism7 applying the Michaelis-Menten fit equation provided by the program. The equation model follows: […]
with: • KM: Michaelis-Menten constant [μM] • Vmax: maximum velocity of reaction [μM/min]
The kinetic parameter kcat is defined as the catalytic constant, representing the turnover number of substrate to product per time unit (here per second) (Eisenthal et al., 2007). kcat can be calculated as follows: […]
with: • kcat: turnover number [min-1] • Vmax: maximum velocity of reaction [μM/min] • [E]tot.: total enzyme concentration [nM]
Another kinetic key parameter to describe the catalytic efficiency of enzymes is the parameter kcat/KM, measured in [μM−1*s−1] in this work (Eisenthal et al., 2007).
Determining enzyme kinetic key parameters gives solid information about the efficiency and efficacy of an enzyme and how certain mutations can impact its functionality. For the determination and comparison of the enzymatic performances, KM, Vmax and kcat as well as kcat/KM were calculated for the different hGCase variants, respectively (Eisenthal et al., 2007). The according assay was performed as described in section 2.5.5, all measured with the artificial substrate res-3-glc. KM and Vmax determination for representative mutant M53T/P55T was done applying the Michaelis-Menten curve fit (GraphPad Prism7; see equation 4) as shown in the following.
The kinetic raw data is depicted in FIG. 5 (A) with progression curves following pseudo first order in a linear measurement range with a good reproducibility and low variance. The slopes of the progression curves can be replotted, with velocities V [μM/min] plotted as a function of substrate concentration [S] applied, resulting in a typical course of a Michaelis-Menten curve (Cornish-Bowden, 2013; Johnson, 2015).

[2] = Thermal shift assay via nanoDSF measurement (unfolding temperature); format: physicochemical; details: Prometheus NT.Plex, 3° C./min, 0.06-0.5 mg/ml
Method: The thermal shift assay was performed via nanoDSF (differential scanning fluorimetry) measurements using Prometheus NT.Plex nanoDSF (NanoTemper Technologies). The measurement was initialized using the software PR.ThermoControl. Prometheus can precisely characterize samples by measuring the thermal unfolding, chemical denaturation and aggregation within one single run (NanoTemper Technologies, 2019). By gradually heating the sample until reaching 95° C., the protein unfolds. Thereby, the chemical environment of tryptophan residues changes (change in intrinsic tryptophan fluorescence of protein due to more aqueous environment), causing a red-shift in fluorescence (tryptophan fluorescence emission shift). By plotting the fluorescence ratio 350/330 nm against the temperature, the melting temperature Tm can be determined. Calculating the first derivative of raw data gives a peak curve with its maximum indicating the unfolding temperature Tm.
For the sample preparation, a concentration of 0.5 mg/ml was adjusted for the hGCase mutants. For variant I5N and R495HS2, protein concentrations of 0.075 mg/ml (I5N) and 0.06 mg/ml (R495HS2) were applied due to low protein yields. 15 μl total sample volume was uptaken in each capillary of the capillary rack (Prometheus NT.Plex Capillary Chips, NanoTemper) and placed in the device. The excitation power was adjusted to 20-80%, depending on the applied protein concentration. The gradually heating was set to 3° C./min until reaching 95° C. (20° C. was set as starting temperature). The evaluation and calculation of the first derivative was done using the NanoTemper PR.ThermoControl software, the final evaluation and graphing was done using the PR.StabilityAnalysis software.
On the one hand, a successively increasing temperature gradient was applied to measure melting temperatures of protein molecules via nanoDSF (differential scanning fluorimetry) measurement using Prometheus NT.Plex (NanoTemper Technologies, 2019). The sample is gradually heated by increasing the temperature until reaching 95° C. Thereby, the protein unfolds and tryptophan residues experience a change in chemical environment (exposure to a more aqueous environment), which changes the intrinsic tryptophan fluorescence of the protein, causing a red shift in the fluorescent spectrum (350/330 nm=tryptophan fluorescence emission shift) (Schubert, 2015). In FIG. 1, typical melting curves of such an unfolding experiment are shown.
In the upper section of the graphs (FIGS. 1 (A) and (B)), the raw data (progression curves) measured with nanoDSF is plotted, indicating the shift in the fluorescence ratio 350/330 nm during the course of the measurement with increasing temperature. The calculation of the first derivative, giving peak curves (lower section of graphs in (A) and (B)), was done according to default settings of the Software PR.StabilityAnalysis (table 2). Peak maxima (thermal unfolding transition midpoint) indicate the unfolding temperature Tm, where half of the proteins are unfold (Schubert, 2015).

Molecule	kcat [1]	Km [1]	Vmax [1]	unfolding temperature Tm [2]
B1	0.05 s⁻¹	189 ± 45.5 µM	0.08 ± 0.01 µM/min and 0.08 µM/min	54.6 °C and 54.6 ± 0.0 °C
B2	0.09 s⁻¹	131 µM	0.14 µM/min	56.2 ± 0.1 °C
B3	0.09 s⁻¹	158 µM and 156 µM	0.13 µM/min	57.3 ± 0.0 °C
B4	0.11 s⁻¹	143 µM	0.17 ± 0.01 µM/min and 0.17 µM/min	55.2 ± 0.0 °C
B5	0.07 s⁻¹	96.6 µM	0.11 µM/min	55.1 ± 0.1 °C
B6	0.09 s⁻¹	100 ± 15.8 µM	0.13 ± 0.01 µM/min and 0.13 µM/min	55.3 ± 0.1 °C
